Reference: patent US20250215412A1 (NOVOZYMES A S, published 2025)

Assays:
Test in all cases: cell-based or functional assay
[1] = target: T1, Chryseobacterium sp-62563 deamidase V190A (Chryseobacterium sp-62563)
T1 chain: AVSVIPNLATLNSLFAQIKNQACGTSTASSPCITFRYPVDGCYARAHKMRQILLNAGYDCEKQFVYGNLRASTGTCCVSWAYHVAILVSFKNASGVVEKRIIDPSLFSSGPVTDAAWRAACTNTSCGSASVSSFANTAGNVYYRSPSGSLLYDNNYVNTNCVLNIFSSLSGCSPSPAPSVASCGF

[2] = target: T2, Chryseobacterium sp-62563 deamidase V190D (Chryseobacterium sp-62563)
T2 chain: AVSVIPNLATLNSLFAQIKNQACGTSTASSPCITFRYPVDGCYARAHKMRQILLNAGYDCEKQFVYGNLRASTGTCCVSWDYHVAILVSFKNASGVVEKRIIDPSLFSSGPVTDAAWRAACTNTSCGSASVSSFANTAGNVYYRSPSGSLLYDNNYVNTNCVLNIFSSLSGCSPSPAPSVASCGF

[3] = target: T3, Chryseobacterium sp-62563 deamidase V190K (Chryseobacterium sp-62563)
T3 chain: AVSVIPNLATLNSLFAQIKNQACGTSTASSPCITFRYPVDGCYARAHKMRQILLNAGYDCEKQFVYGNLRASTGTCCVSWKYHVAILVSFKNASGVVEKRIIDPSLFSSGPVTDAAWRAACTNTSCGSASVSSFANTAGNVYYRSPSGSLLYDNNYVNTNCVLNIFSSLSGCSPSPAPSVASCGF

[4] = target: T4, Chryseobacterium sp-62563 deamidase V190M (Chryseobacterium sp-62563)
T4 chain: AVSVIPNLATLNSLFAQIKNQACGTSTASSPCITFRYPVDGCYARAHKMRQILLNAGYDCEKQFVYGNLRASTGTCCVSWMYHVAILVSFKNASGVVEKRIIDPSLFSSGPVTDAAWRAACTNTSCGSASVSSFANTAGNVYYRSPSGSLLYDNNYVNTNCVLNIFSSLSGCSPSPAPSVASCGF

[5] = target: T5, Chryseobacterium sp-62563 deamidase V190P (Chryseobacterium sp-62563)
T5 chain: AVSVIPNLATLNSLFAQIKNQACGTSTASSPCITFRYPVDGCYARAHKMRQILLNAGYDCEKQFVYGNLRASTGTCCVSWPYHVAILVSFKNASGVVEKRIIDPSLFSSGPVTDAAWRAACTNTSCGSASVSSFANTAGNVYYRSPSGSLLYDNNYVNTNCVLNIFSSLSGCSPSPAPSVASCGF

[6] = target: T6, Chryseobacterium sp-62563 deamidase V190Q (Chryseobacterium sp-62563)
T6 chain: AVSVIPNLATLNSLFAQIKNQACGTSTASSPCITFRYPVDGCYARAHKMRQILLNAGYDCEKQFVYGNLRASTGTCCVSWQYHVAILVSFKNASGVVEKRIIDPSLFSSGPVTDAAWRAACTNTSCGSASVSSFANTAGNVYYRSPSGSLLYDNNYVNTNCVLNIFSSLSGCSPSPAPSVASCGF

[7] = target: T7, Chryseobacterium sp-62563 deamidase V190Y (Chryseobacterium sp-62563)
T7 chain: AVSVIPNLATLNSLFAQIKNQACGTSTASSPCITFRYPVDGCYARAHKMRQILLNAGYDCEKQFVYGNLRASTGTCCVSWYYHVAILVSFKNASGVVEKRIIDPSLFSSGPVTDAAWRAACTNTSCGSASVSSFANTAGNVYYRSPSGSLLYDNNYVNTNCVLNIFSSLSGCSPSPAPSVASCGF

[8] = target: T8, Chryseobacterium sp-62563 deamidase S256D (Chryseobacterium sp-62563)
T8 chain: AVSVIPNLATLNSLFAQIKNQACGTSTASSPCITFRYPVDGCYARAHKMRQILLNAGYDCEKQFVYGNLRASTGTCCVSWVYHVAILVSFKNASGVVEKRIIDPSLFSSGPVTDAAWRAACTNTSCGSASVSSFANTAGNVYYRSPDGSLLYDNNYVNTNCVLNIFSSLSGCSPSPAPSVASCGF

[9] = target: T9, Chryseobacterium sp-62563 deamidase L259P (Chryseobacterium sp-62563)
T9 chain: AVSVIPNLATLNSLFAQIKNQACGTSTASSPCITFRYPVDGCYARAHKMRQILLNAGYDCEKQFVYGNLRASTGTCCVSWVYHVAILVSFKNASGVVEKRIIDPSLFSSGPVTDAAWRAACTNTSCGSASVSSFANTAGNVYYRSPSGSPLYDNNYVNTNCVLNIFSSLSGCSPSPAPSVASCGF

[10] = target: T10, Chryseobacterium sp-62563 deamidase L260K (Chryseobacterium sp-62563)
T10 chain: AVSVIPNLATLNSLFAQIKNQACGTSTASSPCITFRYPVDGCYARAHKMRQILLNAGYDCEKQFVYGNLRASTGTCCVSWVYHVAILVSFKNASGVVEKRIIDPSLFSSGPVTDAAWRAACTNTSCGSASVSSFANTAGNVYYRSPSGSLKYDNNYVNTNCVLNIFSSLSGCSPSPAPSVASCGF

[11] = target: T11, Chryseobacterium sp-62563 deamidase V190G (Chryseobacterium sp-62563)
T11 chain: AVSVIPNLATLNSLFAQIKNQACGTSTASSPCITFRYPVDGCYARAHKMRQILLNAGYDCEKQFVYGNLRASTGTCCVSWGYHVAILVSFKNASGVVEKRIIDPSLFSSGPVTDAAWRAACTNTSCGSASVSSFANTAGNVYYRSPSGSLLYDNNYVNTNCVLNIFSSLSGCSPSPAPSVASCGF

[12] = target: T4, Chryseobacterium sp-62563 deamidase …
[13] = target: T5, Chryseobacterium sp-62563 deamidase …
[14] = target: T12, Chryseobacterium sp-62563 deamidase L260E (Chryseobacterium sp-62563)
T12 chain: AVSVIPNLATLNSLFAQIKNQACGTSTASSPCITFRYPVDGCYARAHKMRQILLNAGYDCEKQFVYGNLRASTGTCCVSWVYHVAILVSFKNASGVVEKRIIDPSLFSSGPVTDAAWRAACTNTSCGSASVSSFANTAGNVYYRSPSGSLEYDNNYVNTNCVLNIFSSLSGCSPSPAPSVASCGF

B1: Chryseobacterium sp-62563 propeptide (first polypeptide, propeptide domain), wildtype (other)
chain: NQDPNLVAKESNETAMKDFGKTVPVGIEKEDGKFKISFMVTAQPYEIKDSKENAAYISMIKTAVENETPIHVFLKANTNEIAKVDKATDDDIRYFKSVFTKEVKEENRK
NanoDSF thermal unfolding temperature [1]: 68.6 ° C. | NanoDSF thermal unfolding temperature [2]: 75.4 ° C. | NanoDSF thermal unfolding temperature [3]: 76.4 ° C. | NanoDSF thermal unfolding temperature [4]: 82 ° C. | NanoDSF thermal unfolding temperature [5]: 74.9 ° C. | NanoDSF thermal unfolding temperature [6]: 75.8 ° C. | NanoDSF thermal unfolding temperature [7]: 81.5 ° C. | NanoDSF thermal unfolding temperature [8]: 81.5 ° C. | NanoDSF thermal unfolding temperature [9]: 80 ° C. | NanoDSF thermal unfolding temperature [10]: 75.5 ° C. | Relative activity of maturated deamidase [11]: ≥ 100 % initial rate | Relative activity of maturated deamidase [12]: 44 % initial rate | Relative activity of maturated deamidase [13]: 32 % initial rate | Relative activity of maturated deamidase [14]: 53 % initial rate
